Source: the supplement of paper PMC5998384

Assays:
[1] = system: HeLa Kyoto; assay: solubility in G1/S (NP-40 vs SDS abundance) (log2 ratio); higher = more soluble; details: cell cycle stage: G1/S
[2] = system: HeLa Kyoto; assay: solubility change mitosis vs G1/S (difference of NP-40 vs SDS log2 ratios) (log2 ratio difference); higher = more soluble in mitosis
[3] = system: HeLa Kyoto; assay: thermal stability score vs G1/S (z-score of summed log2 fold changes over temperatures); higher = more thermally stable than in G1/S
[4] = cell cycle stage: early G1 (4.5 h after nocodazole release)
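Throughout, for solubility change mitosis vs G1/S (difference of NP-40 vs SDS log2 ratios): synchronized HeLa Kyoto cells (double thymidine block for G1/S, nocodazole release for mitosis), protein amounts in NP-40 versus SDS lysates quantified by mass spectrometry, three biological replicates.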
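Throughout, for solubility in G1/S (NP-40 vs SDS abundance): HeLa Kyoto cells arrested at G1/S by double thymidine block, proteins quantified by TMT10plex mass spectrometry in mild NP-40 versus SDS extracts, three biological replicates.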
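Throughout, for thermal stability score vs G1/S (z-score of summed log2 fold changes over temperatures): synchronized HeLa Kyoto cells, proteins quantified by TMT10plex mass spectrometry, three biological replicates, mitosis taken 0.5 h after nocodazole release, G1/S directly after double thymidine block.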

Row | Sequence | solubility in G1/S (log2) [1] | solubility change mitosis (log2) [2] | thermal stability score [3, 4] | thermal stability score ([3]; cell cycle stage: mitosis)
1 | MTVEQNVLQQSAAQKHQQTFLNQLREITGINDTQILQQALKDSNGNLELAVAFLTAKNAKTPQQEETTYYQTALPGNDRYISVGSQADTNVIDLTGDDKDDLQRAIALSLAESNRAFRETGITDEEQAISRVLEASIAENKACLKRTPTEVWRDSRNPYDRKRQDKAPVGLKNVGNTCWFSAVIQSLFNLLEFRRLVLNYKPPSNAQDLPRNQKEHRNLPFMRELRYLFALLVGTKRKYVDPSRAVEILKDAFKSNDSQQQDVSEFTHKLLDWLEDAFQMKAEEETDEEKPKNPMVELFYGRFLAVGVLEGKKFENTEMFGQYPLQVNGFKDLHECLEAAMIEGEIESLHSENSGKSGQEHWFTELPPVLTFELSRFEFNQALGRPEKIHNKLEFPQVLYLDRYMHRNREITRIKREEIKRLKDYLTVLQQRLERYLSYGSGPKRFPLVDVLQYALEFASSKPVCTSPVDDIDASSPPSGSIPSQTLPSTTEQQGALSSELPSTSPSSVAAISSRSVIHKPFTQSRIPPDLPMHPAPRHITEEELSVLESCLHRWRTEIENDTRDLQESISRIHRTIELMYSDKSMIQVPYRLHAVLVHEGQANAGHYWAYIFDHRESRWMKYNDIAVTKSSWEELVRDSFGGYRNASAYCLMYINDKAQFLIQEEFNKETGQPLVGIETLPPDLRDFVEEDNQRFEKELEEWDAQLAQKALQEKLLASQKLRESETSVTTAQAAGDPEYLEQPSRSDFSKHLKEETIQIITKASHEHEDKSPETVLQSAIKLEYARLVKLAQEDTPPETDYRLHHVVVYFIQNQAPKKIIEKTLLEQFGDRNLSFDERCHNIMKVAQAKLEMIKPEEVNLEEYEEWHQDYRKFRETTMYLIIGLENFQRESYIDSLLFLICAYQNNKELLSKGLYRGHDEELISHYRRECLLKLNEQAAELFESGEDREVNNGLIIMNEFIVPFLPLLLVDEMEEKDILAVEDMRNRWCSYLGQEMEPHLQEKLTDFLPKLLDCSMEIKSFHEPPKLPSYSTHELCERFARIMLSLSRTPADGR [USP25] | 0.123 | -0.00837 | -0.404 | 0.0462
2 | MAAAAPAAAAASSEAPAASATAEPEAGDQDSREVRVLQSLRGKICEAKNLLPYLGPHKMRDCFCTINLDQEEVYRTQVVEKSLSPFFSEEFYFEIPRTFQYLSFYVYDKNVLQRDLRIGKVAIKKEDLCNHSGKETWFSLQPVDSNSEVQGKVHLELKLNELITENGTVCQQLVVHIKACHGLPLINGQSCDPYATVSLVGPSRNDQKKTKVKKKTSNPQFNEIFYFEVTRSSSYTRKSQFQVEEEDIEKLEIRIDLWNNGNLVQDVFLGEIKVPVNVLRTDSSHQAWYLLQPRDNGNKSSKTDDLGSLRLNICYTEDYVLPSEYYGPLKTLLLKSPDVQPISASAAYILSEICRDKNDAVLPLVRLLLHHDKLVPFATAVAELDLKDTQDANTIFRGNSLATRCLDEMMKIVGGHYLKVTLKPILDEICDSSKSCEIDPIKLKEGDNVENNKENLRYYVDKLFNTIVKSSMSCPTVMCDIFYSLRQMATQRFPNDPHVQYSAVSSFVFLRFFAVAVVSPHTFHLRPHHPDAQTIRTLTLISKTIQTLGSWGSLSKSKSSFKETFMCEFFKMFQEEGYIIAVKKFLDEISSTETKESSGTSEPVHLKEGEMYKRAQGRTRIGKKNFKKRWFCLTSRELTYHKQPGSKDAIYTIPVKNILAVEKLEESSFNKKNMFQVIHTEKPLYVQANNCVEANEWIDVLCRVSRCNQNRLSFYHPSVYLNGNWLCCQETGENTLGCKPCTAGVPADIQIDIDEDRETERIYSLFTLSLLKLQKMEEACGTIAVYQGPQKEPDDYSNFVIEDSVTTFKTIQQIKSIIEKLDEPHEKYRKKRSSSAKYGSKENPIVGKAS [RASA2] | -0.1 | -0.128 | 0.349 | 0.0928
3 | MESGGRPSLCQFILLGTTSVVTAALYSVYRQKARVSQELKGAKKVHLGEDLKSILSEAPGKCVPYAVIEGAVRSVKETLNSQFVENCKGVIQRLTLQEHKMVWNRTTHLWNDCSKIIHQRTNTVPFDLVPHEDGVDVAVRVLKPLDSVDLGLETVYEKFHPSIQSFTDVIGHYISGERPKGIQETEEMLKVGATLTGVGELVLDNNSVRLQPPKQGMQYYLSSQDFDSLLQRQESSVRLWKVLALVFGFATCATLFFILRKQYLQRQERLRLKQMQEEFQEHEAQLLSRAKPEDRESLKSACVVCLSSFKSCVFLECGHVCSCTECYRALPEPKKCPICRQAITRVIPLYNS [MUL1] | 0.127 | -0.00588 | -0.138 | 0.791
4 | MKAGATSMWASCCGLLNEVMGTGAVRGQQSAFAGATGPFRFTPNPEFSTYPPAATEGPNIVCKACGLSFSVFRKKHVCCDCKKDFCSVCSVLQENLRRCSTCHLLQETAFQRPQLMRLKVKDLRQYLILRNIPIDTCREKEDLVDLVLCHHGLGSEDDMDTSSLNSSRSQTSSFFTRSFFSNYTAPSATMSSFQGELMDGDQTSRSGVPAQVQSEITSANTEDDDDDDDEDDDDEEENAEDRNPGLSKERVRASLSDLSSLDDVEGMSVRQLKEILARNFVNYSGCCEKWELVEKVNRLYKENEENQKSYGERLQLQDEEDDSLCRICMDAVIDCVLLECGHMVTCTKCGKRMSECPICRQYVVRAVHVFKS [RNF34] | 0.0303 | -0.0561 | 0.687 | 0.834
5 | MDTTAAAALPAFVALLLLSPWPLLGSAQGQFSAGGCTFDDGPGACDYHQDLYDDFEWVHVSAQEPHYLPPEMPQGSYMIVDSSDHDPGEKARLQLPTMKENDTHCIDFSYLLYSQKGLNPGTLNILVRVNKGPLANPIWNVTGFTGRDWLRAELAVSTFWPNEYQVIFEAEVSGGRSGYIAIDDIQVLSYPCDKSPHFLRLGDVEVNAGQNATFQCIATGRDAVHNKLWLQRRNGEDIPVAQTKNINHRRFAASFRLQEVTKTDQDLYRCVTQSERGSGVSNFAQLIVREPPRPIAPPQLLGVGPTYLLIQLNANSIIGDGPIILKEVEYRMTSGSWTETHAVNAPTYKLWHLDPDTEYEIRVLLTRPGEGGTGLPGPPLITRTKCAEPMRTPKTLKIAEIQARRIAVDWESLGYNITRCHTFNVTICYHYFRGHNESKADCLDMDPKAPQHVVNHLPPYTNVSLKMILTNPEGRKESEETIIQTDEDVPGPVPVKSLQGTSFENKIFLNWKEPLDPNGIITQYEISYSSIRSFDPAVPVAGPPQTVSNLWNSTHHVFMHLHPGTTYQFFIRASTVKGFGPATAINVTTNISAPTLPDYEGVDASLNETATTITVLLRPAQAKGAPISAYQIVVEELHPHRTKREAGAMECYQVPVTYQNAMSGGAPYYFAAELPPGNLPEPAPFTVGDNRTYQGFWNPPLAPRKGYNIYFQAMSSVEKETKTQCVRIATKAATEEPEVIPDPAKQTDRVVKIAGISAGILVFILLLLVVILIVKKSKLAKKRKDAMGNTRQEMTHMVNAMDRSYADQSTLHAEDPLSITFMDQHNFSPRYENHSATAESSRLLDVPRYLCEGTESPYQTGQLHPAIRVADLLQHINLMKTSDSYGFKEEYESFFEGQSASWDVAKKDQNRAKNRYGNIIAYDHSRVILQPVEDDPSSDYINANYIDGYQRPSHYIATQGPVHETVYDFWRMIWQEQSACIVMVTNLVEVGRVKCYKYWPDDTEVYGDFKVTCVEMEPLAEYVVRTFTLERRGYNEIREVKQFHFTGWPDHGVPYHATGLLSFIRRVKLSNPPSAGPIVVHCSAGAGRTGCYIVIDIMLDMAEREGVVDIYNCVKALRSRRINMVQTEEQYIFIHDAILEACLCGETAIPVCEFKAAYFDMIRIDSQTNSSHLKDEFQTLNSVTPRLQAEDCSIACLPRNHDKNRFMDMLPPDRCLPFLITIDGESSNYINAALMDSYRQPAAFIVTQYPLPNTVKDFWRLVYDYGCTSIVMLNEVDLSQGCPQYWPEEGMLRYGPIQVECMSCSMDCDVINRIFRICNLTRPQEGYLMVQQFQYLGWASHREVPGSKRSFLKLILQVEKWQEECEEGEGRTIIHCLNGGGRSGMFCAIGIVVEMVKRQNVVDVFHAVKTLRNSKPNMVEAPEQYRFCYDVALEYLESS [PTPRK] | 0.0167 | -0.0752 | 1.97 | 1.47
6 | MEGQSSRGSRRPGTRAGLGSLPMPQGVAQTGAPSKVDSSFQLPAKKNAALGPSEPRLALAPVGPRAAMSASSEGPRLALASPRPILAPLCTPEGQKTATAHRSSSLAPTSVGQLVMSASAGPKPPPATTGSVLAPTSLGLVMPASAGPRSPPVTLGPNLAPTSRDQKQEPPASVGPKPTLAASGLSLALASEEQPPELPSTPSPVPSPVLSPTQEQALAPASTASGAASVGQTSARKRDAPAPRPLPASEGHLQPPAQTSGPTGSPPCIQTSPDPRLSPSFRARPEALHSSPEDPVLPRPPQTLPLDVGQGPSEPGTHSPGLLSPTFRPGAPSGQTVPPPLPKPPRSPSRSPSHSPNRSPCVPPAPDMALPRLGTQSTGPGRCLSPNLQAQEAPAPVTTSSSTSTLSSSPWSAQPTWKSDPGFRITVVTWNVGTAMPPDDVTSLLHLGGGDDSDGADMIAIGLQEVNSMLNKRLKDALFTDQWSELFMDALGPFNFVLVSSVRMQGVILLLFAKYYHLPFLRDVQTDCTRTGLGGYWGNKGGVSVRLAAFGHMLCFLNCHLPAHMDKAEQRKDNFQTILSLQQFQGPGAQGILDHDLVFWFGDLNFRIESYDLHFVKFAIDSDQLHQLWEKDQLNMAKNTWPILKGFQEGPLNFAPTFKFDVGTNKYDTSAKKRKPAWTDRILWKVKAPGGGPSPSGRKSHRLQVTQHSYRSHMEYTVSDHKPVAAQFLLQFAFRDDMPLVRLEVADEWVRPEQAVVRYRMETVFARSSWDWIGLYRVGFRHCKDYVAYVWAKHEDVDGNTYQVTFSEESLPKGHGDFILGYYSHNHSILIGITEPFQISLPSSELASSSTDSSGTSSEGEDDSTLELLAPKSRSPSPGKSKRHRSRSPGLARFPGLALRPSSRERRGASRSPSPQSRRLSRVAPDRSSNGSSRGSSEEGPSGLPGPWAFPPAVPRSLGLLPALRLETVDPGGGGSWGPDREALAPNSLSPSPQGHRGLEEGGLGP [INPP5J] | 0.0932 | -0.115 | 0.193 | 0.518
7 | MAAPAPGAGAASGGAGCSGGGAGAGAGSGSGAAGAGGRLPSRVLELVFSYLELSELRSCALVCKHWYRCLHGDENSEVWRSLCARSLAEEALRTDILCNLPSYKAKIRAFQHAFSTNDCSRNVYIKKNGFTLHRNPIAQSTDGARTKIGFSEGRHAWEVWWEGPLGTVAVIGIATKRAPMQCQGYVALLGSDDQSWGWNLVDNNLLHNGEVNGSFPQCNNAPKYQIGERIRVILDMEDKTLAFERGYEFLGVAFRGLPKVCLYPAVSAVYGNTEVTLVYLGKPLDG [FBXO45] | 0.344 | -0.17 | -0.0815 | -0.292
8 | MATLVELPDSVLLEIFSYLPVRDRIRISRVCHRWKRLVDDRWLWRHVDLTLYTMRPKVMWHLLRRYMASRLHSLRMGGYLFSGSQAPQLSPALLRALGQKCPNLKRLCLHVADLSMVPITSLPSTLRTLELHSCEISMAWLHKQQDPTVLPLLECIVLDRVPAFRDEHLQGLTRFRALRSLVLGGTYRVTETGLDAGLQELSYLQRLEVLGCTLSADSTLLAISRHLRDVRKIRLTVRGLSAPGLAVLEGMPALESLCLQGPLVTPEMPSPTEILSSCLTMPKLRVLELQGLGWEGQEAEKILCKGLPHCMVIVRACPKESMDWWM [FBXL12] | -0.129 | -0.183 | -0.861 | -0.543
9 | MIPVSLVVVVVGGWTVVYLTDLVLKSSVYFKHSYEDWLENNGLSISPFHIRWQTAVFNRAFYSWGRRKARMLYQWFNFGMVFGVIAMFSSFFLLGKTLMQTLAQMMADSPSSYSSSSSSSSSSSSSSSSSSSSSSSLHNEQVLQVVVPGINLPVNQLTYFFTAVLISGVVHEIGHGIAAIREQVRFNGFGIFLFIIYPGAFVDLFTTHLQLISPVQQLRIFCAGIWHNFVLALLGILALVLLPVILLPFYYTGVGVLITEVAEDSPAIGPRGLFVGDLVTHLQDCPVTNVQDWNECLDTIAYEPQIGYCISASTLQQLSFPVRAYKRLDGSTECCNNHSLTDVCFSYRNNFNKRLHTCLPARKAVEATQVCRTNKDCKKSSSSSFCIIPSLETHTRLIKVKHPPQIDMLYVGHPLHLHYTVSITSFIPRFNFLSIDLPVVVETFVKYLISLSGALAIVNAVPCFALDGQWILNSFLDATLTSVIGDNDVKDLIGFFILLGGSVLLAANVTLGLWMVTAR [MBTPS2] | -0.23 | -0.109 | -0.0953 | -0.633
